From patent US20140271456A1, “RADIOTRACER IMAGING USING SODIUM IODIDE SYMPORTER POLYPEPTIDES” (Mayo Foundation for Medical Education and Research, priority 2013, published 2014)
Substitutions are numbered along the chain they refer to. “Also recorded” adds a separate entry of the source.

How the values were obtained:
[1] = test system: NIS polypeptide-mediated uptake in stomach; test: NIS imaging of a mouse fed oral CT contrast agent by gavage; assay type: in vivo; settings: mouse with NIS transduced liver, then imaged
Source text: In the following example, ingestion of barium sulfate was used to enable and enhance discrimination of NIS expression in the liver.

NIS expressing cells = settings: less efficiently than iodide; cited from earlier work
NIS = molecular target: T1, NIS (Homo sapiens, UniProt Q92911); test: iodide mediated quenching of YFP-H148Q/I152L fluorescence; assay type: cell-based; settings: 5 mM KClO4; quenching mediated by 200 mM NaI; FIG. 3
T1 construct: expressed in transfected cells; host or cells: cells transduced with the lentiviral vector
T1 sequence (Q92911 1-643): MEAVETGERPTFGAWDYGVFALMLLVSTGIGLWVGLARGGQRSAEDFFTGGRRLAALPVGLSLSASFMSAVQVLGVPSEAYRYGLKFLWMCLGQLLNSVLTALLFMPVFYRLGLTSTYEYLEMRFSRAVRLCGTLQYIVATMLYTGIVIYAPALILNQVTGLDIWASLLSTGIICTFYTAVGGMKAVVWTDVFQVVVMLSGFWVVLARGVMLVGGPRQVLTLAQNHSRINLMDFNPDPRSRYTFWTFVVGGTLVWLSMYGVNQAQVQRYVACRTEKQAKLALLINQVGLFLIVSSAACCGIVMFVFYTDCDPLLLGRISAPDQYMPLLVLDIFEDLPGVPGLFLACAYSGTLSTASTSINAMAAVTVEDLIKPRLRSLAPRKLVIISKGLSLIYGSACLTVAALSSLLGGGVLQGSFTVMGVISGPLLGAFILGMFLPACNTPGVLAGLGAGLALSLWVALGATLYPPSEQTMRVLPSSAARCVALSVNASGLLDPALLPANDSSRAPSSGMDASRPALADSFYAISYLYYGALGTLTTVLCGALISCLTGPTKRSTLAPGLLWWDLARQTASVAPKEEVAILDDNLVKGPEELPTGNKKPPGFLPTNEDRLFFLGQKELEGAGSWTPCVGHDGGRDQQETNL
Experimental: 72 hours post infection, the cells are subjected to two color flow cytometry to determine the percentage of cells that express YFP-H148Q/I152L and are tagged with anti-HA antibody conjugated to Alexa Fluor 647. To determine the percentage hNIS variants that can transport iodide into the cell, infected cells are treated with 200 μM NaI. The quenching of YFP-H148Q/I152L fluorescence (output for intracellular iodide uptake) is analyzed by flow cytometry.
Five million cells are infected at a moi of 1 with the lentiviral library transducing HA-hNIS variants. On the third day post infection, the cells are expanded to increase the number of cells expressing each unique NIS variant to limit the potential of it being lost during the selection procedure. On day 5, infected cells that fluoresce brightly are selected for by fluorescence-activated cell sorting (FACS) and collected in HBSS/HEPES buffer Immediately thereafter, these cells are incubated for 5 minutes with KClO4 at a concentration that inhibits iodide transport by non-mutated NIS. Then, NaI is added to the cells to a finale concentration of […], and the cells are incubated for 10 minutes at 37° C. Cells whose fluorescence is quenched in the presence of KClO4 are selected for by flow sorting. […]

[2] = test system: NIS expressing organs (thyroid and stomach) and BXPC-3-hNIS tumor; test: SPECT/CT dual isotope imaging of nude mice with BXPC-3-hNIS tumors; settings: four hours after i.p. 250 μCi of each isotope
Experimental: FIG. 6. SPECT/CT dual isotope imaging of nude mice implanted with SQ BXPX-3-hNIS tumors. Animals were injected i.p with 250 μCi ^125I and 250 μCi ^99mTc and imaged four hours later. Images were processed using Vivo Quant software. The scale was adjusted manually to get minimal yellow in the tissues.
The stomach and thyroid signals were subtract from the SPECT dataset (FIG. 5). In this experiment, nude female mice (5-week of age) were injected with 3×10^6 BXPC-3-hNIS cells. When tumors reached a diameter of 1 cm, mice were injected I.P. with ^125I sodium iodide (250 μCi) and/or ^99mTc-pertechneate (250 μCi). Four hours post isotope administration, SPECT/CT data were acquired with U-SPECT-II (MiLabs). The SPECT emission data were collected in dual-energy windows to separate the gamma emision energy counts from ^99mTc (140 keV) and ^125I (35 keV). […] Radioiodide thyroid signal subtraction was performed by normalizing the ^125I SPECT data to thyroid tissue on the ^99mTc SPECT data using the image arithmetic tools available in PMOD image fusion software. This was performed in three steps by (1) calculating the normalization factor (i.e., the inverse ratio between the maximum voxel value corresponding to the thyroid tissue on the ^125I SPECT and the maximum voxel value corresponding to the thyroid tissue on the ^99mTc SPECT data set), (2) multiplying each voxel in the ^125I SPECT dataset by this normalization factor, and (3) subtracting the normalized ^125I SPECT dataset from ^99mTc SPECT data set to generate a thyroid subtraction SPECT dataset (FIG. 5C). Similarly, ^99mTc stomach signal subtraction was performed by (1) calculating the normalization factor which in this case is the inverse ratio of the maximum voxel value corresponding to the stomach tissue on the ^99mTc SPECT to the maximum voxel value corresponding to the stomach tissue in the ^125I SPECT data set, (2) multiplying each voxel in the ^99mTc SPECT dataset by this normalization factor, and (3) subtracting the normalized ^99mTc SPECT dataset from ^125I SPECT data set to generate a stomach subtraction SPECT dataset (FIG. 5B).

Mel624 cells = test: radiotracer uptake assay in Mel624 cells stably expressing NIS polypeptides; assay type: cell-based, human; settings: for uptake of pertechnetate (Technetium-99m) / uptake of radioiodide (Iodine-125): Mel624 cells stably expressing the NIS polypeptide, 37° C. for 1 hour, +/−300 μM KClO4, gamma counter
Experimental: Mel624 cells stably expressing a wild-type human NIS polypeptide (Mel-NIS) or one of two mutant NIS polypeptides (Mel-NIS-93E or Mel-NIS-93Q) were plated in 96-well plates at a density that would lead them to confluency on the day of the uptake assay. 1× Hank's balanced salt solution with calcium, magnesium (HBSS) (Cellgro) and 1 mM HEPES was adjusted to pH 7.3 using KOH (HBBS-HEPES) on the day of the assay. Culture medium was removed from the cells, and 150 μL of HBSS-HEPES+/−300 μM KClO4 was added to the wells. The cells were incubated for 10 minutes at room temperature prior to the addition of radiotracer. Radiotracers, ^125I and ^99mTc, were diluted in HBSS-HEPES to about 70,000 to 100,000 CPM/25 μL (CPM, counts per minute). 25 μL of radiotracer was added to the cells in HBSS-HEPES+/−KClO4, and the cells were incubated at 37° C. for 1 hour. The cells were then washed twice with cold HBSS-HEPES buffer and lysed to release the intracellular radiotracer by adding 200 μL 1M NaOH. Lysates were transferred to strip tubes and quantified using a gamma counter.

[3] = test system: BxPC3 cells (human pancreatic tumor cells); test: 123I/99mTc subtraction SPECT of BxPC3 tumors expressing NIS or NIS-93E in athymic mice; assay type: in vivo; settings: subcutaneous BxPC3 tumors; four hours after i.p. 123I and 99mTcO4
Experimental: Image subtraction is used to discriminate a tumor that concentrates only one of two NIS isotopes from organs that concentrate both isotopes (e.g., thyroid gland, stomach, and salivary glands). BxPC3 cells (human pancreatic tumor cells) stably expressing either wild-type human NIS polypeptides or human mutant NIS-93E polypeptides are implanted subcutaneously in the flanks of athymic mice. Once tumors grow to a diameter of 5-8 mm, ^123I/^99mTc subtraction SPECT is performed using a dual-detector SPECT camera. Four hours after the intraperitoneal administration of 250 μCi ^123I sodium iodide and 250 μCi ^99mTcO4, SPECT/CT data are acquired. The SPECT emission data are collected in dual-energy windows to separate the ^99mTc and ^123I counts. The ^99mTc window is centered at 140 keV, and the ^123I window is placed with a 4% offset above 159 keV to minimize the spillover of the ^99mTc photopeak into the much less intense ^123I photopeak. SPECT reconstruction is performed for each of the two acquisition windows. ^123I SPECT voxel intensities on thyroid tissue are normalized to the corresponding ^99mTc SPECT data, and in this way a normalization factor is determined Each voxel in the ^123I SPECT dataset is then multiplied by this normalization factor, and the normalized ^123I SPECT data is subtracted from the ^99mTc SPECT data to create a subtraction SPECT dataset. […]

## O=S(=O)([O-])[O-].[Ba+2] [barium sulfate]
[1]
  isotope signals from the stomach: reduced isotope signals from the stomach
[1]; listed as oral contrast agent
  isotope signals from the stomach: significant reduction of the stomach signal

## [K+].[O-][Cl+3]([O-])([O-])[O-] [perchlorate, KClO4]
NIS expressing cells
  efficiency of concentration in NIS expressing cells compared to iodide anions: 10 fold
NIS
  effect on iodide mediated quenching of YFP-H148Q/I152L: inhibition

## [O]=[99Tc](=[O])(=[O])[O-] [^99mTc, ^99mTc-pertechneate]
[2]
  accumulation in stomach: preferentially accumulates
  accumulation in tumor (BXPC-3-hNIS): does not discriminate between the two isotopes; also recorded: accumulate both isotopes to similar concentrations

## [125I-].[Na+] [^125I, ^125I sodium iodide]
[2]
  accumulation in thyroid: preferentially accumulates
  accumulation in tumor (BXPC-3-hNIS): does not discriminate between the two isotopes; also recorded: accumulate both isotopes to similar concentrations

B1: NIS-93E: mutant human sodium iodide symporter polypeptide, amino acid sequence SEQ ID NO:1 (FIG. 4) (protein, listed as Homo sapiens)
chain: T1 sequence (Q92911 1-643) with G93E
Mel624 cells
  iodide versus TcO4 concentrating efficiency: concentrate iodide with greater efficiency than TcO4
  uptake of pertechnetate (Technetium-99m): not pertechnetate
  uptake of radioiodide (Iodine-125): capable of up-taking radioiodide
Mel624 cells; FIGS. 1A and 1B
  concentration of Iodine-125 uptake in tumor cells as compared to non-mutated NIS (NIS WT): decrease
Mel624 cells; listed as G93E
  uptake of pertechnetate (Technetium-99m): not Technetium-99m
  uptake of radioiodide (Iodine-125): selectively transports Iodine-125
Mel624 cells; listed as NIS-G93E
  uptake of pertechnetate (Technetium-99m): not Technetium-99m
  uptake of radioiodide (Iodine-125): transport selectively Iodine-125
[3]
  isotope concentration by tumors expressing the polypeptide, subtraction SPECT: concentrate only iodide and not pertechnetate

B2: wild-type human NIS polypeptide: wild-type human sodium iodide symporter polypeptide (protein, UniProt Q92911 1-643, looked up)
Sodium/iodide cotransporter: T1 sequence (Q92911 1-643)
Mel624 cells
  uptake of pertechnetate (Technetium-99m): Substantial uptake
  uptake of radioiodide (Iodine-125): Substantial uptake
